Measured values: paper doi:10.1101/2022.04.07.487446 (bioRxiv, 2022)

Target: FANCD2 (human, UniProt Q9BXW9 1-1451)
Test: cryo-EM structure

Chain of FANCD2 (Q9BXW9 whole entry): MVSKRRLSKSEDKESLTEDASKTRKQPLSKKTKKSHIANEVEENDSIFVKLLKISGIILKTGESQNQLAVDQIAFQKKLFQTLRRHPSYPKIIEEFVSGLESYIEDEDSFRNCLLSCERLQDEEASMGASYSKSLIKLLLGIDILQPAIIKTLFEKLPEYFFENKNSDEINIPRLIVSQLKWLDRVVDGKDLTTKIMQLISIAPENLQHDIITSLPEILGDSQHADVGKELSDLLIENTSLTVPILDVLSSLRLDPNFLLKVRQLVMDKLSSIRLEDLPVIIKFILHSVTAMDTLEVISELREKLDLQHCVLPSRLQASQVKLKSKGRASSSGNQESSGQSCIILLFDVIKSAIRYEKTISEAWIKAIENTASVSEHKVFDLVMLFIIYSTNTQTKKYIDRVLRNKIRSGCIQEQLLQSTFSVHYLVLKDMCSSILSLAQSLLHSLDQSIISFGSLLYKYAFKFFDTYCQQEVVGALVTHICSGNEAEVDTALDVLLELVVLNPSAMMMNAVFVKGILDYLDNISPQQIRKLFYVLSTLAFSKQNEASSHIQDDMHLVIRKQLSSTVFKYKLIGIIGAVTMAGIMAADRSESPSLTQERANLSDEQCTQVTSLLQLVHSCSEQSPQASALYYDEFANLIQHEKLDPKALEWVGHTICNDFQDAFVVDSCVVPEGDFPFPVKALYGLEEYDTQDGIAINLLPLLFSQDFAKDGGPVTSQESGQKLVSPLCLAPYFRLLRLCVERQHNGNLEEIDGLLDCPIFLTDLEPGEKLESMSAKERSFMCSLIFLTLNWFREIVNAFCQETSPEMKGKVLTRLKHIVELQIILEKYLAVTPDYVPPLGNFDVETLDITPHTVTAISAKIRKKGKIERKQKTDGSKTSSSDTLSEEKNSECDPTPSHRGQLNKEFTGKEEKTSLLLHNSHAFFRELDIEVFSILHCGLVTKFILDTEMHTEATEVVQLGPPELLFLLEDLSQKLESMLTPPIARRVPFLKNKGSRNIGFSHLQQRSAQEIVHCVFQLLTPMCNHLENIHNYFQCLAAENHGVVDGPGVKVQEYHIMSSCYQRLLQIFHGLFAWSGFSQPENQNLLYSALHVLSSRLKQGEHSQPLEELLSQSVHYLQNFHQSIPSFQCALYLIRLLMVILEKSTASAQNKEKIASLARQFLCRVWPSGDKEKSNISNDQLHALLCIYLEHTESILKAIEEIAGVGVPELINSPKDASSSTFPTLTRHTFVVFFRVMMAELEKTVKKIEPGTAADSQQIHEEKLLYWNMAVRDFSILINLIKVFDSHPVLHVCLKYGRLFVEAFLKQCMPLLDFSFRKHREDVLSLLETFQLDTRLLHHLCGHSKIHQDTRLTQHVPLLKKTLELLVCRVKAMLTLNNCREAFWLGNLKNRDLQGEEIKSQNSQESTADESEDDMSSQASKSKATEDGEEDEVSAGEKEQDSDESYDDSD

- binding result: binds
B1: ubiquitinated His6-V5-FANCI (natural protein)
chain 1: MDQKILSLAAEKTADKLQEFLQTLREGDLTNLLQNQAVKGKVAGALLRAIFKGSPCSEEAGTLRRRKIYTCCIQLVESGDLQKEIASEIIGLLMLEAHHFPGPLLVELANEFISAVREGSLVNGKSLELLPIILTALATKKENLAYGKGVLSGEECKKQLINTLCSGRWDQQYVIQLTSMFKDVPLTAEEVEFVVEKALSMFSKMNLQEIPPLVYQLLVLSSKGSRKSVLEGIIAFFSALDKQHNEEQSGDELLDVVTVPSGELRHVEGTIILHIVFAIKLDYELGRELVKHLKVGQQGDSNNNLSPFSIALLLSVTRIQRFQDQVLDLLKTSVVKSFKDLQLLQGSKFLQNLVPHRSYVSTMILEVVKNSVHSWDHVTQGLVELGFILMDSYGPKKVLDGKTIETSPSLSRMPNQHACKLGANILLETFKIHEMIRQEILEQVLNRVVTRASSPISHFLDLLSNIVMYAPLVLQSCSSKVTEAFDYLSFLPLQTVQRLLKAVQPLLKVSMSMRDCLILVLRKAMFANQLDARKSAVAGFLLLLKNFKVLGSLSSSQCSQSLSVSQVHVDVHSHYNSVANETFCLEIMDSLRRCLSQQADVRLMLYEGFYDVLRRNSQLANSVMQTLLSQLKQFYEPKPDLLPPLKLEACILTQGDKISLQEPLDYLLCCIQHCLAWYKNTVIPLQQGEEEEEEEEAFYEDLDDILESITNRMIKSELEDFELDKSADFSQSTSIGIKNNICAFLVMGVCEVLIEYNFSISSFSKNRFEDILSLFMCYKKLSDILNEKAGKAKTKMANKTSDSLLSMKFVSSLLTALFRDSIQSHQESLSVLRSSNEFMRYAVNVALQKVQQLKETGHVSGPDGQNPEKIFQNLCDITRVLLWRYTSIPTSVEESGKKEKGKSISLLCLEGLQKIFSAVQQFYQPKIQQFLRALDVTDKEGEEREDADVSVTQRTAFQIRQFQRSLLNLLSSQEEDFNSKEALLLVTVLTSLSKLLEPSSPQFVQMLSWTSKICKENSREDALFCKSLMNLLFSLHVSYKSPVILLRDLSQDIHGHLGDIDQDVEVEKTNHFAIVNLRTAAPTVCLLVLSQAEKVLEEVDWLITKLKGQVSQETLSEEASSQATLPNQPVEKAIIMQLGTLLTFFHELVQTALPSGSCVDTLLKDLCKMYTTLTALVRYYLQVCQSSGGIPKNMEKLVKLSGSHLTPLCYSFISYVQNKSKSLNYTGEKKEKPAAVATAMARVLRETKPIPNLIFAIEQYEKFLIHLSKKSKVNLMQHMKLSTSRDFKIKGNILDMVLREDGEDENEEGTASEHGGQNKEPAKKKRKK
chain 2: […]
